{"source": "paper PMC10641686", "about": "“Fcγ receptor binding is required for maximal immunostimulation by CD70-Fc” (Frontiers in Immunology, 2023)", "molecules": {"B1": {"name": "Soluble trimeric CD70 (tCD70) (ligand, mouse, UniProt O55237 41-195, looked up)", "chain": "SGLLSKQQQRLLEHPEPHTAELQLNLTVPRKDPTLRWGAGPALGRSFTHGPELEEGHLRIHQDGLYRLHIQVTLANCSSPGSTLQHRATLAVGICSPAAHGISLLRGRFGQDCTVALQRLTYLVHGDVLCTNLTLPLLPSRNADETFFGVQWICP", "notes": "CD70, mouse, extracellular domain S41-P195; Predicted chain MW 51.5 kDa; also called CD4 fusion protein; not shown: CD4 domains 3 and 4 (mouse), N-terminal, kept"}, "B2": {"name": "recombinant mouse FcRn (receptor)", "chain": "SETRPPLMYHLTAVSNPSTGLPSFWATGWLGPQQYLTYNSLRQEADPCGAWMWENQVSWYWEKETTDLKSKEQLFLEALKTLEKILNGTYTLQGLLGCELASDNSSVPTAVFALNGEEFMKFNPRIGNWTGEWPETEIVANLWMKQPDAARKESEFLLNSCPERLLGHLERGRRNLEWKEPPSMRLKARPGNSGSSVLTCAAFSFYPPELKFRFLRNGLASGSGNCSTGPNGDGSFHAWSLLEVKRGDEHHYQCQVEHEGLAQPLTVDLDSSARSS"}}, "key": {"[1]": {"biological_target": "FcγRs (mouse (endogenous in C57BL/6 mice))"}, "[2]": {"biological_target": "dimer of trimer CD70-Fc fusion protein (dtCD70-Fc) (mouse) (UniProt O55237)", "assay": "SDS-PAGE under non-reducing and reducing conditions; 5 ug purified protein on a 10% SDS-polyacrylamide gel, Coomassie blue; disulfide-linked dimer of the Fc fusion chain"}, "[3]": {"biological_target": "T1, Recombinant mouse CD27-human Fc (mouse, UniProt P41272 24-182)", "T1 construct": "CD27, mouse; Captured by anti-human IgG on the chip; no catalogue number is printed; also called CD27-Fc; mouse CD27 protein; source: bought: R&D systems", "T1 sequence (looked up)": "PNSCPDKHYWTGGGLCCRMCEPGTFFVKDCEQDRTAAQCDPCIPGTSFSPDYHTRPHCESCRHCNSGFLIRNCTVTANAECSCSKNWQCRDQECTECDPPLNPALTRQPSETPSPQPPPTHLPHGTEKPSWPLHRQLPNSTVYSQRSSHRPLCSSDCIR", "assay": "SPR; apparent; Biacore T200, HBS-EP+; mouse CD27-human Fc captured on anti-human IgG coupled to a CM5 chip; CD70 fusion proteins (1.56, 6.25, 25 and 100 nM) injected at 30 ul/min; KD from ka and kd"}, "[4]": {"biological_target": "anti-CD27 mouse IgG1 (recombinant, from hybridoma AT124-1) (mouse)", "assay": "SPR; about 2000 RU of dtCD70-Fc or anti-CD27 immobilised on a CM5 chip by amine coupling; mouse FcRn (0, 0.8, 4, 20, 100, 500 nM) injected 3 min at 30 ul/min in HBS-EP+ pH 6; KD from steady-state binding levels"}, "[5]": {"biological_target": "dimer of trimer CD70-Fc fusion protein (dtCD70-Fc) (mouse) (UniProt O55237)", "assay": "SPR; about 2000 RU of dtCD70-Fc or anti-CD27 immobilised on a CM5 chip by amine coupling; mouse FcRn (0, 0.8, 4, 20, 100, 500 nM) injected 3 min at 30 ul/min in HBS-EP+ pH 6; KD from steady-state binding levels"}}, "note": "Like-named read-outs stand apart in the source and are kept apart here."}
{"molecule": "Endo H treated dtCD70-Fc (from UniProt O55237 41-195; O55237 41-195; O55237 41-195) (Fc fusion)", "values": [{"measurement": "OT-I T cell expansion in vivo during the primary response, Endo H treated dtCD70-Fc (wild-type Fc) against Endo H treated dtCD70-Fc(D265A)", "setting": "[1]", "result": 3, "unit": "fold"}]}
{"molecule": "dimer of trimer CD70-Fc fusion protein (dtCD70-Fc) (from UniProt O55237 41-195; O55237 41-195; O55237 41-195)", "values": [{"measurement": "stoichiometry N", "setting": "[2]", "result": 2}, {"measurement": "Kd", "setting": "[3]", "result": 0.6, "unit": "nM"}]}
{"molecule": "B1", "values": [{"measurement": "Kd", "setting": "[3]; both partners purified", "result": 1.2, "unit": "nM"}]}
{"molecule": "B2", "values": [{"measurement": "Kd", "setting": "[4]", "result": 49, "unit": "nM"}, {"measurement": "Kd", "setting": "[5]", "result": 46, "unit": "nM"}]}
